# Reference: US20040213788A1 (published 2004)
# T1: soluble human RANKL protein (human, UniProt O14788 140-317, limits assumed, biotinylated at a 20:1 molar ratio of NHS-biotin to protein (in the competition ELISA only))
# T1 construct: Soluble form; Biotinylated in the ELISA, unlabelled in the cell assays; also called shRANKL; sRANKL
# T1 sequence (looked up): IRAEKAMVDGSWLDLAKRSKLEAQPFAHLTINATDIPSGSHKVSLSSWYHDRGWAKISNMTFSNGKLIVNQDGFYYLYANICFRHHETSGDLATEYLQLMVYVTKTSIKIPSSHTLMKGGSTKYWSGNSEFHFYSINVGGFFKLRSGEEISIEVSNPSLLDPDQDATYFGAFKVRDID
# Columns and labels:
# [1] = target: T1, soluble human RANKL protein; assay: competition ELISA: inhibition of biotinylated shRANKL (0.43 nM) binding to coated RANK-Fc
# Source text: (§1) A. A competition ELISA was established using a human RANK-Fc fusion protein coated on plastic and a biotinylated soluble human RANKL protein for detection in solution. The RANK-FC and RANKL proteins were produced in CHO cells and Pichia pastoris, respectively, and purified to >90% homogeneity. The shRANKL (soluble, human RANKL) protein was biotinylated at a 20:1 molar ratio of NHS-biotin to protein (Pierce, Rockford, Ill.) according to the manufacturer's specifications. 96-well ELISA plates were coated overnight at 4° C. with 50 ng/well ([…]) RANK-Fc in pH 9.6 carbonate-bicarbonate buffer. Plates were washed in pH 7.4 Tris-Saline buffer containing 0.1% Tween 20 and blocked for 2 h at RT in 1% BSA/PBS. Competitor proteins (RANK-Fc; death receptor 5 (DR5)-Fc; OPG-Fc; RANKL mAb 14F3) were diluted in 0.01% Tween 20/PBS and added to wells prior to the addition of biotinylated shRANKL (0.43 nM) and the combined samples were incubated for 2 hrs at room temperature. The amount of biotinylated shRANKL bound to coated RANK-Fc (+/−competitor) was measured using alkaline phosphatase conjugated streptavidin. The substrate for signal detection was 105 PNPP (Pierce Inc., Rockford, Ill.) and absorbence measured at 405 nm using a Spectra Max 340 plate reader.
# [2] = target: T1, soluble human RANKL protein; assay: cell-based or functional assay
# [3] = target: T1, soluble human RANKL protein; assay: not described; paragraph 32 names optical biosensor analysis for Kd
# [4] = target: T1, soluble human RANKL protein; assay: competition ELISA: soluble RANK-Fc inhibits biotinylated shRANKL (0.43 nM) binding to coated RANK-Fc
# Source text: as §1
IC50 [1] [nM],Kd [3] [nM],IC50 [4] [nM],Binder,"IC50, formation of multinuclear cells (human monocyte osteoclastogenesis) [2] [µg/mL]"
~0.5,,,"OPG-Fc (Fc fusion, UniProt O00300 22-201, looked up, also called osteoprotegerin-Fc; not shown: Fc part; not described) ETFPPKYLHYDEETSHQLLCDKCPPGTYLKQHCTAKWKTVCAPCPDHYYTDSWHTSDECLYCSPVCKELQYVKQECNRTHNRVCECKEGRYLEIEFCLKHRSCPPGFGVVQAGTPERNTVCKRCPDGFFSNETSSKAPCRKHTNCSVFGLLLTQKGNATHDNICSGNSESTQKCGIDVTL",
~2,~0.1,,"mouse monoclonal antibody 14F3 (antibody, V domains shown, Whole mouse IgG2a/kappa purified from hybridoma; also called 14F3 mAb; RANKL mAb 14F3) VH: EVQLVESGGDLVKPGGSLKLSCAASGFTFSRYGMSWVRQTPDKRLEWVATISSGGSYTYYPDSVKGRFTISRDNAKNTLYLQMSSLKSEDTAMYYCARLDGYNYRWYFDVWGTGTTVTVSS VL: DIVMTQSHKFMSTSVGDRVSITCKASQDVSSAVAWYQQKPGQSPKLLIYSASYRYTGVPDRFTGSGSGTDFTFTISSVQAEDLAVYYCQQHYSSPRTFGGGTNLEIKR",~4
,,~6,"human RANK-Fc fusion protein (Fc fusion, UniProt Q9Y6Q6 30-212, looked up, not shown: a dimerising Fc or GST) IAPPCTSEKHYEHLGRCCNKCEPGKYMSSKCTTTSDSVCLPCGPDEYLDSWNEEDKCLLHKVCDTGKALVAVVAGNSTTPRRCACTAGYHWSQDCECCRRNTECAPGLGAQHPLQLNKDTVCKPCLAGYFSDAFSSTDKCRPWTNCTFLGKRVEHHGTEKSDAVCSSSLPARKPPNEPHVYLP",~0.5
